Reference: patent publication US11702475B2, “Cysteine engineered fibronectin type III domain binding molecules” (Janssen Biotech, Inc., priority 2013, dated 2023)
Values joined by “and” are separate entries in the source; they are usually repeats but may differ in a detail not shown here. Identical values can stand only once. Like-named read-outs stand apart in the source and are kept apart here.

B1: V9C (conjugate)
chain: LPAPKNLVCSEVTEDSARLSWDDPWAFYESFLIQYQESEKVGEAIVLTVPGSERSYDLTGLKPGTEYTVSIYGVHNVYKDTNMRGLPLSAIFTT
modifications: left off: small tags and cut ends
B2: V12C (conjugate)
chain: LPAPKNLVVSECTEDSARLSWDDPWAFYESFLIQYQESEKVGEAIVLTVPGSERSYDLTGLKPGTEYTVSIYGVHNVYKDTNMRGLPLSAIFTT
modifications: left off: small tags and cut ends
B3: P50C (conjugate)
chain: LPAPKNLVVSEVTEDSARLSWDDPWAFYESFLIQYQESEKVGEAIVLTVCGSERSYDLTGLKPGTEYTVSIYGVHNVYKDTNMRGLPLSAIFTT
modifications: left off: small tags and cut ends
B4: L86C (conjugate)
chain: LPAPKNLVVSEVTEDSARLSWDDPWAFYESFLIQYQESEKVGEAIVLTVPGSERSYDLTGLKPGTEYTVSIYGVHNVYKDTNMRGCPLSAIFTT
modifications: left off: small tags and cut ends
B5: E29C (conjugate)
chain: LPAPKNLVVSEVTEDSARLSWDDPWAFYCSFLIQYQESEKVGEAIVLTVPGSERSYDLTGLKPGTEYTVSIYGVHNVYKDTNMRGLPLSAIFTT
modifications: left off: small tags and cut ends
B6: G42C (conjugate)
chain: LPAPKNLVVSEVTEDSARLSWDDPWAFYESFLIQYQESEKVCEAIVLTVPGSERSYDLTGLKPGTEYTVSIYGVHNVYKDTNMRGLPLSAIFTT
modifications: left off: small tags and cut ends
B7: R18C (conjugate)
chain: LPAPKNLVVSEVTEDSACLSWDDPWAFYESFLIQYQESEKVGEAIVLTVPGSERSYDLTGLKPGTEYTVSIYGVHNVYKDTNMRGLPLSAIFTT
modifications: left off: small tags and cut ends
B8: T13C (conjugate)
chain: LPAPKNLVVSEVCEDSARLSWDDPWAFYESFLIQYQESEKVGEAIVLTVPGSERSYDLTGLKPGTEYTVSIYGVHNVYKDTNMRGLPLSAIFTT
modifications: left off: small tags and cut ends
B9: P63C (conjugate)
chain: LPAPKNLVVSEVTEDSARLSWDDPWAFYESFLIQYQESEKVGEAIVLTVPGSERSYDLTGLKCGTEYTVSIYGVHNVYKDTNMRGLPLSAIFTT
modifications: left off: small tags and cut ends
B10: V49C (conjugate)
chain: LPAPKNLVVSEVTEDSARLSWDDPWAFYESFLIQYQESEKVGEAIVLTCPGSERSYDLTGLKPGTEYTVSIYGVHNVYKDTNMRGLPLSAIFTT
modifications: left off: small tags and cut ends
B11: P87C (conjugate)
chain: LPAPKNLVVSEVTEDSARLSWDDPWAFYESFLIQYQESEKVGEAIVLTVPGSERSYDLTGLKPGTEYTVSIYGVHNVYKDTNMRGLCLSAIFTT
modifications: left off: small tags and cut ends
B12: N82C (conjugate)
chain: LPAPKNLVVSEVTEDSARLSWDDPWAFYESFLIQYQESEKVGEAIVLTVPGSERSYDLTGLKPGTEYTVSIYGVHNVYKDTCMRGLPLSAIFTT
modifications: left off: small tags and cut ends
B13: M83C (conjugate)
chain: LPAPKNLVVSEVTEDSARLSWDDPWAFYESFLIQYQESEKVGEAIVLTVPGSERSYDLTGLKPGTEYTVSIYGVHNVYKDTNCRGLPLSAIFTT
modifications: left off: small tags and cut ends
B14: R84C (conjugate)
chain: LPAPKNLVVSEVTEDSARLSWDDPWAFYESFLIQYQESEKVGEAIVLTVPGSERSYDLTGLKPGTEYTVSIYGVHNVYKDTNMCGLPLSAIFTT
modifications: left off: small tags and cut ends
B15: K5C (conjugate)
chain: LPAPCNLVVSEVTEDSARLSWDDPWAFYESFLIQYQESEKVGEAIVLTVPGSERSYDLTGLKPGTEYTVSIYGVHNVYKDTNMRGLPLSAIFTT
modifications: left off: small tags and cut ends
B16: G85C (conjugate)
chain: LPAPKNLVVSEVTEDSARLSWDDPWAFYESFLIQYQESEKVGEAIVLTVPGSERSYDLTGLKPGTEYTVSIYGVHNVYKDTNMRCLPLSAIFTT
modifications: left off: small tags and cut ends
B17: G51C (conjugate)
chain: LPAPKNLVVSEVTEDSARLSWDDPWAFYESFLIQYQESEKVGEAIVLTVPCSERSYDLTGLKPGTEYTVSIYGVHNVYKDTNMRGLPLSAIFTT
modifications: left off: small tags and cut ends
B18: P4C (conjugate)
chain: LPACKNLVVSEVTEDSARLSWDDPWAFYESFLIQYQESEKVGEAIVLTVPGSERSYDLTGLKPGTEYTVSIYGVHNVYKDTNMRGLPLSAIFTT
modifications: left off: small tags and cut ends
B19: E39C (conjugate)
chain: LPAPKNLVVSEVTEDSARLSWDDPWAFYESFLIQYQESCKVGEAIVLTVPGSERSYDLTGLKPGTEYTVSIYGVHNVYKDTNMRGLPLSAIFTT
modifications: left off: small tags and cut ends
B20: WT: Tencon (SEQ ID NO: 265) cysteine variant conjugated to VC-MMAF as a negative control (conjugate)
chain: LPAPKNLVVSEVTEDSLRLSWTAPDAAFDSFLIQYQESEKVGEAINLTVPGSERSYDLTGLKPGTEYTVSIYGVKGGHRSNPLSAEFTTGGHHHHHHC
modifications: VC-MMAF conjugated via cysteine; Tencon FN3 scaffold
B21: 83v2His6-cys: P54AR4-83v2 parent with C-terminal cysteine (SEQ ID NOs: 217 and 255); NEM and vcMMAF conjugates (conjugate)
chain: MLPAPKNLVVSEVTEDSARLSWDDPWAFYESFLIQYQESEKVGEAIVLTVPGSERSYDLTGLKPGTEYTVSIYGVHNVYKDTNMRGLPLSAIFTTGGHHHHHHC
modifications: His6 tag, C-terminal Cys; NEM or vcMMAF conjugate; EGFR binding FN3 domain
notes: NEM and vcMMAF conjugates

Tests used:
[1] = Analytical size exclusion chromatography (percent monomer); assay type: physicochemical; settings: NEM-conjugated cysteine variants; SEC, Abs280 monomer region 5.5-6 minutes vs oligomer region 4-5.3 minutes
Protocol: Size exclusion chromatography was used to determine the aggregation state of the FN3 domains binding EGFR. Aliquots (10 μL) of each purified FN3 domain were injected onto a Superdex 75 5/150 column (GE Healthcare) at a flow rate of 0.3 mL/min in a mobile phase of PBS pH 7.4. Elution from the column was monitored by absorbance at 280 nm.
The percent monomer for each protein was determined by integrating the Abs280 signal and comparing the peak in the monomer region (5.5-6 minutes) to the peaks in the oligomer region (4-5.3 minutes).

[2] = Thermal stability of cysteine-NEM conjugates by DSC; assay type: physicochemical; settings: for First Scan Tm: DSC 25-100 °C, 1 °C per minute; for Second Scan Tm: second identical scan
Protocol: The thermal stability of cysteine-NEM conjugates was assessed by differential scanning calorimetry (DSC). The only the conjugates tested were those determined to express at high levels, conjugate efficiently, and retain EGFR binding. Additionally, cysteine variants within the BC and FG loops were excluded. Stability data was generated by heating a 400 μL aliquot of the variant from 25° C. to 100° C. at a scan rate of 1° C. per minute in a VP-DSC instrument (MicroCal). A second identical scan was completed on the sample in order to assess the reversibility of thermal folding/unfolding. Data was fitted to a 2-state unfolding model in order to calculate the melting temperature (Table 10).

[3] = tested on: EGFR-overexpressing human tumor cell line H1573; test: Cytotoxicity assay in H1573 cells; assay type: cell-based
Protocol: Cell killing was assessed by measuring viability of the EGFR-overexpressing human tumor cell line H1573 following exposure to the cysteine variant-cytotoxin conjugates. Cells were plated in black-well, clear bottomed, tissue culture-treated plates (Falcon 353219) at 7000/well in 100 μL/well of phenol red free RPMI media (Gibco 11835-030) with 5% fetal bovine serum (Gibco). Cells were allowed to attach overnight at 37° C. in a humidified 5% CO2 atmosphere. Medium was aspirated from 96-well plate and cells were treated with 50 uL of fresh media and 50 uL of 2× inhibitor made up in fresh media. Cell viability was determined by an endpoint assay with Cell TiterGlo (Promega) at 70 hours. IC50 values were determined by fitting data to the equation for a sigmoidal dose response with variable slope using GraphPad Prism 5 (GraphPad Software). Table 11 reports IC50 values obtained from analysis of the CellTiter Glo data.
Conjugates consisting of ECB147 cysteine variants, 83v2-cys, or Tencon-cys linked to a cytotoxic tubulin inhibitor from the auristatin family (FIG. 2) were tested for target-dependent cytotoxicity in cancer cells. The inhibitor was linked to the cysteine-containing protein via a non-cleavable PEG4 linker or an enzyme-cleavable valine-citrulline or valine-lysine linker. Cell killing was assessed by measuring viability of the EGFR-overexpressing human tumor cell lines H1573 and A431 as well as the EGFR-negative tumor cell line MDA-MB-435 following exposure to the protein-cytotoxin conjugates using the procedure described in Example 4.

[4] = cysteine variants conjugated to VC-MMAF, Cell TiterGlo at 70 hours, read-out: IC50

Molecule	Percent monomer [1]	First Scan Tm [2] [°C]	Second Scan Tm [2] [°C]	IC50 [3, 4]	IC50 ([3]; vcMMAF conjugate, read-out: average IC50 of two replicates) [nM]
B1	double peak	46	46		
B2	66%	58	58		
B3	100%	63	65		
B4	83%				
B5	85%	63	66		
B6	87%	65	67		
B7	93%	62	62		
B8	82%	63	63		
B9	92%	60	62		
B10	88%	54	55		
B11	98%				
B12	100%				
B13	91%				
B14	100%				
B15	100%				
B16	95%				
B17	96%	61	61		
B18	100%				
B19	100%	67	69		
B20				146 nM and 166 nM	
B21	97%	71	71	0.61 nM and 0.79 nM	0.7
